Results taken from patent US20170210799A1 (Janssen / Centocor, published 2017).

Legend:
[1] = target: T1, human ROR1 (Receptor Tyrosine Kinase-Like Orphan Receptor 1) on cells (human, UniProt Q01973 30-937); assay: cell binding, ROR1 expressing H358 cells
T1 construct: whole, on cells; endogenous on SKMES-1, MDA-MB231, H358, HCC827 and MCL lines, or on HEK293 cells transfected with human ROR1 (pDR25226); the cell line is named under assay; also called cell-surface ROR1; hu ROR1

[2] = target: T2, ROR1 extracellular domain c-Mer proto-oncogene tyrosine kinase transmembrane domain (ROR1 ECD MERTK tm) (Homo sapiens (Human), UniProt Q01973 30-405); assay: cell binding, ROR1 transiently transfected HEK293F cells
T2 construct: also called RR1W1; ROR1-Transfected CHO
T2 sequence (Q01973 other isoform, or with tags, fused parts or gaps): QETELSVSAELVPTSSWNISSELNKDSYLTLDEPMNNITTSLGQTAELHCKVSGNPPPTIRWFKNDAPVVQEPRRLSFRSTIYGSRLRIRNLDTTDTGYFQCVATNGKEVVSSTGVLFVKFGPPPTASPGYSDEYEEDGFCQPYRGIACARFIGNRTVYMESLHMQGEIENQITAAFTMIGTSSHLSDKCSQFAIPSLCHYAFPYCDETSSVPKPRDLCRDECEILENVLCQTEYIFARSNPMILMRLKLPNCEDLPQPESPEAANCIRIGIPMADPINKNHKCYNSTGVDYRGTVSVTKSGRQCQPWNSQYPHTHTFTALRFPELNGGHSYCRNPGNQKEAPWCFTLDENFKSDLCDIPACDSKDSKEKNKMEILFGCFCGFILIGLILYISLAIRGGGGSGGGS

[3] = target: ROR1 ECD MERTK tm (RR1W1) on transfected HEK293F cells (Homo sapiens (Human), UniProt Q01973 30-405); assay: cell binding, ROR1 transfected 293F cells
ROR1 ECD MERTK tm (RR1W1) on transfected HEK293F cells, sequence (Q01973 other isoform, or with tags, fused parts or gaps): as above

[4] = target: T3, human ROR1 (Receptor Tyrosine Kinase-Like Orphan Receptor 1) on cells (human, UniProt Q01973 30-937); assay: cell binding, H358 cells
T3 construct: whole, on cells; also called hu ROR1

| Binder | binding result [1] | binding result [2] | binding result [3] | binding result [4] |
| --- | --- | --- | --- | --- |
| CD3B219 (antibody, human IgG4 S228P, lambda, F234A L235A, V domains shown, IgG4 PAA anti-CD3 parental antibody; also called anti-CD3 antibody CD3B219; anti-CD3 antibodies) VH: EVQLVESGGGLVQPGGSLRLSCAASGFTFNTYAMNWVRQAPGKGLEWVARIRSKYNNYATYYAASVKGRFTISRDDSKNSLYLQMNSLKTEDTAVYYCARHGNFGNSYVSWFAYWGQGTLVTVSS VL: QTVVTQEPSLTVSPGGTVTLTCRSSTGAVTTSNYANWVQQKPGQAPRGLIGGTNKRAPGTPARFSGSLLGGKAALTLSGVQPEDEAEYYCALWYSNLWVFGGGTKLTVLG | no binding | no binding |  |  |
| CD3B219 (antibody, human IgG4 S228P, lambda, F234A L235A, V domains shown, parental anti-CD3 mAb; also called anti-CD3 antibody; Anti-CD3) VH: EVQLVESGGGLVQPGGSLRLSCAASGFTFNTYAMNWVRQAPGKGLEWVARIRSKYNNYATYYAASVKGRFTISRDDSKNSLYLQMNSLKTEDTAVYYCARHGNFGNSYVSWFAYWGQGTLVTVSS VL: QTVVTQEPSLTVSPGGTVTLTCRSSTGAVTTSNYANWVQQKPGQAPRGLIGGTNKRAPGTPARFSGSLLGGKAALTLSGVQPEDEAEYYCALWYSNLWVFGGGTKLTVLG |  |  | no binding | no binding |
